The target in assay [1] is T1, hen egg lysozyme (Gallus gallus (hen egg white), UniProt P00698). The assay is described as follows: flow cytometry on cells. For orientation: Flow cytometry measures light scatter and fluorescence of single cells or particles in a stream.
The target of assay [2] is T1, hen egg lysozyme. The assay is described as follows: ELISA. (In general: In an ELISA, binding on a coated surface is turned into a signal by an enzyme label.)
Assay [3] addresses T1, hen egg lysozyme. The assay is described as follows: BLI.

T1 sequence (P00698 19-147): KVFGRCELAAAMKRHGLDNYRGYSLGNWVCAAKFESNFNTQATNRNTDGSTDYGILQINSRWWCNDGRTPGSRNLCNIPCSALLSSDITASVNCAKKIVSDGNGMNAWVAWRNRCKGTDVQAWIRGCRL

B1: HEL23 (antibody, V domains shown)
VH: EVQLQQSGAELMKPGASVKISCKATGYTFSNYWIGWVKQRPGHGLEWIGEILPGSGSTNYNEKFKGKATFTADTSSNTAYMQLSSLTSEDSAVYYCARDSSGGFAYWGQGTLVTVSA
VL: DIVLTQSPAIMSASLGERVTMTCTASSNVSSSYLHWYQQKPGSSPKLWIYSTSNLASGVPARFSGSGSGTSYSLTISSMEAEDAATYYCHQYHRSPPTFGAGTKLEIK
Turning to B1, the binding result in the assay with hen egg lysozyme [1] is on record as “binds”.

B2: HEL23 variant 3 (antibody, V domains shown)
VH: EVQLQQSGAELMKPGASVKISSKATGYTFSNYWIGWVKQRPGHGLEWIGEILPGSGSTNYNEKFKGKATFTADTSSNTAYMQLNSLTSEDSAVYYCARDSSGGFAYWGQGTLVTVSA
VL: DIVLTQSPAIMSASLGERVTMTCTASSNVSSSYLHWYQQKPGSSPKLWIYSTSNLASGVPARFSGSGSGTSYSLTISSMEAEDAATYYCHQYHRSPPTFGAGTKLEIK
As to B2, the binding result with hen egg lysozyme [2] is “binds”.

B3: HEL23 variant 1 (antibody, V domains shown)
VH: EVQLRQSGAELMKPGASVKISCKATGYTFSNYWIGWVKQRPGHGLEWIGEILPGSGSTNYNEKFKGKATFTADTSSNTAYMQLSSLTSEDGAVYYCARDSSGGFVYWGRGTLVTVSA
VL: DIVLTQSPAIMSASLGERVTMTCTASSNVSSSYLHWYQQKPGSSPKLWIYSTSNLASGVPARFSGSGSGTSYSLTISSMEAEDAATYYCHQYHRSPPTFGAGTKLEIK
Take B3: the binding result with hen egg lysozyme [3] was “binds”.

B4: HEL23 variant 4 (antibody, V domains shown)
VH: EVQVQQSGAELKKPGASVKISCKATGYTFSNYWIGWVKQRPGHGLEWIGEILPSSSSTNYNEKFKGKATFTADTSSNTAYMQLSSLTSEDSAVYYCARDSSGGFAYWGQGSLVTVSA
VL: DIVLTQSPAIMSASLGERVTMTCTASSNVSSSYLHWYQQKPGSSPKLWIYSTSNLASGVPARFSGSGSGTSYSLTISSMEAEDAATYYCHQYHRSPPTFGAGTKLEIK
Turning to B4, the binding result with hen egg lysozyme [2] is recorded as “binds”.

B5: HEL23 variant 5 (antibody, V domains shown)
VH: EVQLQQSGAELMKPGASVKISCKATGYTFSNYWIGWVKQRPGHGLEWIGEILPSSGSTNYNEKFKGKATFTADTSSNIAYMQLSSLTSEDSAVYYCARDSSGGFAYWGQGTLVTVSA
VL: DIVLTQSPAIMSASLGERVTMTCTASSNVSSSYLHWYQQKPGSSPKLWIYSTSNLASGVPARFSGSGSGTSYSLTISSMEAEDAATYYCHQYHRSPPTFGAGTKLEIK
In the case of B5, the binding result with hen egg lysozyme [2] is on record as “binds”.
